Laboratory results from patent US20030175681A1.

Target: rhCMV (strain 68.1) US28 homolog(s): fractalkine-binding receptor protein expressed on rhCMV-infected rhesus dermal fibroblasts and on rhCMV virions
Experiment: homologous competition: unlabeled fractalkine displaces 125I-fractalkine from rhCMV-infected rhesus dermal fibroblasts, filter binding

Chain of fractalkine (P78423 25-100 limits assumed): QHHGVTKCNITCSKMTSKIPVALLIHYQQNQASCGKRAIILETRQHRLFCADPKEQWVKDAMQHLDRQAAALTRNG

Substance: fractalkine (from UniProt P78423 25-100) (ligand)
- IC50: 0.044 nM
